In patent US7897569B2, “Use of HMGB fragments as anti-inflammatory agents” (The Feinstein Institute for Medical Research, priority 2001, dated 2011):

How the values were obtained:
[1] = test system: HMGB1; test: A box antagonism of full length HMGB1 TNF release in RAW 264.7 macrophage cultures (ELISA); format: cell-based; conditions: co-addition with HMGB1, 16 hours, polymyxin B
Protocol: Antagonism of full length HMGB1 activity by HMGB1 A box or GST tag (vector control) was also determined by measuring TNF release from RAW 264.7 macrophage cultures stimulated by co-addition of A box with full length HMGB1. RAW 264.7 macrophage cells (ATCC) were seeded into 24-well tissue culture plates and used at 90% confluence. The cells were treated with HMGB1, and/or A boxes as indicated for 16 hours in Optimum I medium (Life Technologies, Grand Island, N.Y.) in the presence of polymyxin B (100 units/ml, Sigma, St. Louis, Mo.) and supernatants were collected for TNF measurement (mouse ELISA kit from R&D System Inc, Minneapolis, Minn.). TNF-inducing activity was expressed as a percentage of the activity achieved with HMG-1 alone. FIG. 4B is a histogram of the effect of HMGB1, alone, A box alone, Vector (control) alone, HMGB1 in combination with A box, and HMGB1 in combination with vector.

[2] = test system: HMGB1; test: A box inhibition of HMGB1 induced TNF release from RAW 264.7 cells (L929 assay); format: cell-based; conditions: HMGB1 1 μg/ml, A box 0-25 μg/ml, 16 hours
Protocol: Weak agonists are by definition antagonists. […] This study was carried out as follows. Sub-confluent RAW 264.7 cells in 24-well dishes were treated with HMGB1 (1 μg/ml) and 0, 5, 10, or 25 μg/ml of A box for 16 hours in Opti-MEM I medium in the presence of polymyxin B (100 units/ml). The TNF-stimulating activity (assayed using the L929 cytotoxicity assay described herein) in the sample receiving no A box was expressed as 100%, and the inhibition by A box was expressed as percent of HMGB1 alone. […] Data in FIG. 4A are presented as mean±SD (n=2-3 independent experiments).

B1: A box: Human HMGB1 mutant containing only the A box, SEQ ID NO:21 (A box SEQ ID NO:22) (protein)
chain: MGKGDPKKPTGKMSSYAFFVQTCREEHKKKHPDASVNFSEFSKKCSERWKTMSAKEKGKFEDMAKADKARYEREMKTYIPPKGET
- effect on TNF stimulating activity of full length HMGB1 [1]: significantly attenuated
- apparent EC50 for inhibition of HMGB1 induced TNF release [2]: approximately 7.5 μg/ml
